Results taken from US20030198971A1.

Target: c-fos leucine zipper helix fused via (Gly4Ser)3 linker to BLIP-D49A, fused via a similar linker to β-lactamase (tri-partite cis-inhibited β-lactamase fusion) (UniProt P01100)
Test: cell-based or functional assay

Substance | % plating efficiency on 10 µg/ml ampicillin, 100 µM IPTG [%] | % plating efficiency on 25 µg/ml ampicillin, 100 µM IPTG [%] | % plating efficiency on 50 µg/ml ampicillin, 100 µM IPTG [%] | % plating efficiency on 100 µg/ml ampicillin, 100 µM IPTG [%] | % plating efficiency on 10 µg/ml ampicillin, 100 µM IPTG, c-jun-trx co-expressed as inhibitor [%] | % plating efficiency on 25 µg/ml ampicillin, 100 µM IPTG, c-jun-trx co-expressed as inhibitor [%] | % plating efficiency on 50 µg/ml ampicillin, 100 µM IPTG, c-jun-trx co-expressed as inhibitor [%] | % plating efficiency on 100 µg/ml ampicillin, 100 µM IPTG, c-jun-trx co-expressed as inhibitor [%] | fold reduction of plating efficiency on 100 µg/ml ampicillin by co-expressed c-jun-trx [fold]
BLIP-F142A without amino-terminal c-jun helix (from UniProt P35804 37-201) | 100 | 4 | < 0.01 | < 0.01 | – | – | – | – | –
BIP (β-lactamase-S70A) without amino-terminal c-jun helix (from UniProt P62593 24-286) | 100 | 0.7 | < 0.01 | < 0.01 | – | – | – | – | –
c-jun leucine zipper helix fused via (Gly4Ser)3 linker to BIP (β-lactamase-S70A) (from UniProt P05412 276-315; P62593 24-286) | 100 | 100 | 100 | 100 | 100 | 100 | 9 | 0.08 | > 1000
c-jun leucine zipper helix fused via (Gly4Ser)3 linker to BLIP-F142A (from UniProt P05412 276-315; P35804 37-201) | 100 | 100 | 100 | 100 | 100 | 100 | 75 | 0.5 | –
